This is an account of results in US8084213, “Selection” (Domantis Limited).

Series [1] addresses scFv(31IJ1)-(KEAAA)6-scArc-HA (Phage P22 / human scFv?). In words: recovery improves with operator number. Conditions: tags: N-terminal scFv fusion, C-terminal HA; chain copies: 2 scArc per operator (inferred). Here is the method:
In the solution expression experiments 3 µl of 1.7 nM PCR-amplified pIE7aA, pIE7a2A, pIE7a3A, pIE7a4A, pIE7aA-scFv(31IJ1), pIE7a2A-scFv(31 Ul), pIE7a3A-scFv (31IJ1) or pIE7a4A-scFv(31IJ1) template in 0.2 mg/ml tRNA is added to 25 µl EcoPro T7 in vitro translation mix (Novagen), supplemented with 0.75 µl of 100 mM oxidized glutathione (Sigma) and 0.25 µl […] 3F10 αHA mAb (Roche). Each reactions is split into three 9 µl aliquots. Two of the three in vitro translation aliquots of pIE7aA-scFv(31IJ1), pIE7a2A-scFv(31IJ1), pIE7a3A-scFv(31IJ1) or pIE-7a4A-scFv(31IJ1) are immediately combined with the aliquots of pIE7aA, pIE7a2A, pIE7a3A or pIE7a4A expression reactions respectively, one before and the other after the four-hour incubation at 25° C.
During the translation reaction the streptavidin-coated PCR tubes, cut from Strep Thermofast 96-well plates (Abgene), are first incubated at room temperature for three hours with 50 µl of at least 40 nM biotinylated protein A (Sigma), protein L (Pierce) fluorescein (Molecular Probes) of BSA (Sigma) in PBS. The coating buffer is thereafter removed and any remaining free biotin-binding sites are blocked with a 15 min pulse of 50 µg/ml biotinylated BSA in PBS. The pre-coated wells are thereafter three times washed with PBS and then filled with 100 µl of binding buffer C+ (100 mM KCl, 20 mM Tris, 5 mM MgCl2, 0.05% Tween 20, 0.05 mM EDTA, 1% BSA).
Upon completion of the translation reaction the products are diluted in Buffer C+ and applied to the pre-coated and blocked PCR tubes, allowed to bind for 30 min at room temperature and washed 4 times with 150 µl of Buffer C+. The retained genetic elements are amplified with PCR using a nested set of primers AS79/AS80 and a 30-cycle PCR protocol 30X60C2M. In 30X60C2M protocol 50 µl PCR reactions contain 200 µM each of dATP dTTP dGTP dCTP (Amersham), 300 nM forward and reverse primers AS13+ AS19 and 1 U of SuperTaq DNA polymerase (HT Biotechnology) in 1× polymerase Buffer (HT Biotechnology). […]

The target in series [2] is T1, scArc-Vk(E5)-HA (Phage P22 / human Vk). Kind of series: stable linkage even without anti-HA mAb. Conditions: tags: C-terminal Vk(E5) dAb fusion, chain copies: 2 scArc per operator (stated).
Series [3] addresses T2, Vk(E5)-scArc-HA (Phage P22 / human Vk). Kind of series: recovery increases with operator number; complex stabilised by 3.4 nM anti-HA mAb 3F10. To be noted: tags: N-terminal Vk(E5) dAb fusion, C-terminal HA; chain copies: 2 scArc per operator (stated).
For series [4], the target named is T2, Vk(E5)-scArc-HA. In words: recovery reaches plateau at 3-4 operators. To be noted: tags: N-terminal Vk(E5) dAb fusion, C-terminal HA; chain copies: 2 scArc per operator (stated). The method, then: (§1) Tubes from Strep Thermofast 96-well plates are coated by applying 2 µl of 0.05 mg/ml biotinylated rat anti-HA mAb (clone 3F10, Roche), 0.2 µl of 0.5 mg/ml biotinylated protein L (Pierce), 1 µl of biotinylated 1 mg/ml β-galactosidase or 0.1 µl of 5 mg/ml biotinylated BSA (Sigma) respectively in 50 µl aliquots of PBS and incubating for 3 hours at room temperature. The monoclonal high-affinity α-HA mAb 3F10 recognises the C-terminal HA tag, β-galactosidase and protein L can be expected to interact with the $V_\kappa$(E5) light chain domain, while BSA serves as the negative control. At the end of the incubation the coating solution is removed and the first blocking solution consisting of 150 µl of 10 ng/ml biotinylated BSA (Sigma) in PBS is added to the wells and incubated for 15 minutes. At the end of the incubation the wells are washed three times with 150 µl of PBS and blocked additionally for 30 min at room temperature with buffer C+.
(§2) 25 µl S30 in vitro translation reactions (EcoPro T7, Novagen) are assembled according to the manufacturer's instructions and supplemented with 1.5 µl of 1.7 mM PCR-amplified template in 0.1 mg/ml RNA and 0.75 µl of 100 mM oxidized glutathione. […]
(§3) The PCR amplification products are analysed by 1% agarose gel electrophoresis in TAE in the presence of ethidium bromide and imaged using GeneGeius Bio Imaging System (Syngene). […]

The target in series [5] is T1, scArc-Vk(E5)-HA. Kind of series: plateau at 3-4 operators. Conditions: tags: C-terminal Vk(E5) dAb fusion, chain copies: 2 scArc per operator (stated). The method, then: as §1, §2, §3

B1: genetic element with four Arc operators (dsDNA)
DNA 1: GATCTATGATAGAAGCACTCTACTATACTCATCACGAAACGGAGGATCTATGATAGAAGCACTCTACTATACTCATCACGAAACGGAGGATCTATGATAGAAGCACTCTACTATACTCATCACGAAACGGAGGATCTATGATAGAAGCACTCTACTAT
DNA 2: ATAGTAGAGTGCTTCTATCATAGATCCTCCGTTTCGTGATGAGTATAGTAGAGTGCTTCTATCATAGATCCTCCGTTTCGTGATGAGTATAGTAGAGTGCTTCTATCATAGATCCTCCGTTTCGTGATGAGTATAGTAGAGTGCTTCTATCATAGATC
Consider B1, for which, in series [1], the binding result is “binds”.

B2: genetic element with two Arc operators (dsDNA)
DNA 1: GATCTATGATAGAAGCACTCTACTATACTCATCACGAAACGGAGGATCTATGATAGAAGCACTCTACTAT
DNA 2: ATAGTAGAGTGCTTCTATCATAGATCCTCCGTTTCGTGATGAGTATAGTAGAGTGCTTCTATCATAGATC
With B2, the binding result in series [2], in series [1] and in series [3] was “binds” throughout.

B3: genetic element with three Arc operators (dsDNA)
DNA 1: GATCTATGATAGAAGCACTCTACTATACTCATCACGAAACGGAGGATCTATGATAGAAGCACTCTACTATACTCATCACGAAACGGAGGATCTATGATAGAAGCACTCTACTAT
DNA 2: ATAGTAGAGTGCTTCTATCATAGATCCTCCGTTTCGTGATGAGTATAGTAGAGTGCTTCTATCATAGATCCTCCGTTTCGTGATGAGTATAGTAGAGTGCTTCTATCATAGATC
Take B3: the binding result in series [4], in series [5] and in series [1] was “binds” each time.
